Experimental findings from article PMC7055391 are described below.

The assay addresses Cqm1 receptor protein (functional form; residues 23–560) (Culex quinquefasciatus). In words: small-angle neutron scattering (SANS); single proteins in 100% D2O buffer C (25 mM HEPES pH 7.5, 25 mM NaCl), 25°C; Cqm1 3.3 mg/ml, hBinB 3.3 mg/ml; ab initio IFT modelling and fits against crystal structures.

In the case of “Cqm1 receptor protein (functional form; residues 23–560)”, the stoichiometry N (in general, a count of units in the complex or per binding partner) worked out at 2.
